The record followed here is paper PMC13071878 (Journal of Medicinal Chemistry, 2026).

One may read the IC50 as the concentration at which inhibition is half-maximal. Read a high IC50 as a need for much substance. In general, Ki refers to the dissociation constant of the complex between target and ligand, obtained from inhibition or displacement. The term stoichiometry N denotes a count of units in the complex or per binding partner.

For experiment [1], the target named is T1, human angiotensin-converting enzyme 1 (hACE1) (human, UniProt P12821 30-1256). Description: enzyme inhibition assay. To be noted: both partners purified.
In experiment [2] the target is T2, human angiotensin-converting enzyme 1 (human, UniProt P12821 30-1256).
T2 construct: also called hACE1; human ACE1 enzyme
Nature of the experiment: enzyme inhibition assay (fluorogenic substrate); 0.25 nM hACE1, 10 μM Mca-Arg-Pro-Pro-Gly-Phe-Ser-Ala-Phe-Lys(Dnp)-OH, MP 0.03 nM to 100 μM; 10 mM Tris-HCl pH 7.4, 300 mM NaCl, 100 μM ZnCl2, 0.1% BSA, 0.1% DMSO. To be noted: both partners purified.

For experiment [3], the target named is extracellular catalytic domain of human angiotensin-converting enzyme 2 (hACE2), produced in mammalian cells (human, UniProt Q9BYF1 19-615). Description: ITC; MicroCal iTC200, 25 °C, 100 mM Tris pH 7.4, 200 mM NaCl; hACE2 in the cell (6 or 7 uM), peptide in the syringe (60 or 70 uM); single-site model. To be noted: both partners purified. In general terms: Isothermal titration calorimetry measures the heat released or taken up as one component is titrated into another.

For experiment [4], the target named is T1, human angiotensin-converting enzyme 1 …. Description: enzyme inhibition assay; 0.25 nM hACE1, 10 uM fluorogenic substrate Mca-Arg-Pro-Pro-Gly-Phe-Ser-Ala-Phe-Lys(Dnp)-OH, dilutions of inhibitor; 10 mM Tris-HCl pH 7.4, 300 mM NaCl, 100 uM ZnCl2, 0.1% BSA, 0.1% DMSO. Conditions: both partners purified.
Experiment [5] concerns the target T3, biotinylated extracellular catalytic domain of human angiotensin-converting enzyme 2 (hACE2), produced in … (human, UniProt Q9BYF1 19-615).
T3 construct: also called biotinylated hACE2
Nature of the experiment: flow cytometry on cells; yeast surface titration: yeast cells displaying the ligand incubated with soluble biotinylated hACE2 (100 pM to 3 uM), at least 1 h, room temperature (25 °C, pH 7.4); binding/display MFI, one-site fit; apparent KD. To be noted: one partner purified. (In general: A flow cytometer gives signals particle by particle.)

Bridges are numbered along the chain shown (N, C = ends). Where no end group is shown, it is not given here. Some results are limits rather than exact numbers.

T1 sequence (P12821 30-1256): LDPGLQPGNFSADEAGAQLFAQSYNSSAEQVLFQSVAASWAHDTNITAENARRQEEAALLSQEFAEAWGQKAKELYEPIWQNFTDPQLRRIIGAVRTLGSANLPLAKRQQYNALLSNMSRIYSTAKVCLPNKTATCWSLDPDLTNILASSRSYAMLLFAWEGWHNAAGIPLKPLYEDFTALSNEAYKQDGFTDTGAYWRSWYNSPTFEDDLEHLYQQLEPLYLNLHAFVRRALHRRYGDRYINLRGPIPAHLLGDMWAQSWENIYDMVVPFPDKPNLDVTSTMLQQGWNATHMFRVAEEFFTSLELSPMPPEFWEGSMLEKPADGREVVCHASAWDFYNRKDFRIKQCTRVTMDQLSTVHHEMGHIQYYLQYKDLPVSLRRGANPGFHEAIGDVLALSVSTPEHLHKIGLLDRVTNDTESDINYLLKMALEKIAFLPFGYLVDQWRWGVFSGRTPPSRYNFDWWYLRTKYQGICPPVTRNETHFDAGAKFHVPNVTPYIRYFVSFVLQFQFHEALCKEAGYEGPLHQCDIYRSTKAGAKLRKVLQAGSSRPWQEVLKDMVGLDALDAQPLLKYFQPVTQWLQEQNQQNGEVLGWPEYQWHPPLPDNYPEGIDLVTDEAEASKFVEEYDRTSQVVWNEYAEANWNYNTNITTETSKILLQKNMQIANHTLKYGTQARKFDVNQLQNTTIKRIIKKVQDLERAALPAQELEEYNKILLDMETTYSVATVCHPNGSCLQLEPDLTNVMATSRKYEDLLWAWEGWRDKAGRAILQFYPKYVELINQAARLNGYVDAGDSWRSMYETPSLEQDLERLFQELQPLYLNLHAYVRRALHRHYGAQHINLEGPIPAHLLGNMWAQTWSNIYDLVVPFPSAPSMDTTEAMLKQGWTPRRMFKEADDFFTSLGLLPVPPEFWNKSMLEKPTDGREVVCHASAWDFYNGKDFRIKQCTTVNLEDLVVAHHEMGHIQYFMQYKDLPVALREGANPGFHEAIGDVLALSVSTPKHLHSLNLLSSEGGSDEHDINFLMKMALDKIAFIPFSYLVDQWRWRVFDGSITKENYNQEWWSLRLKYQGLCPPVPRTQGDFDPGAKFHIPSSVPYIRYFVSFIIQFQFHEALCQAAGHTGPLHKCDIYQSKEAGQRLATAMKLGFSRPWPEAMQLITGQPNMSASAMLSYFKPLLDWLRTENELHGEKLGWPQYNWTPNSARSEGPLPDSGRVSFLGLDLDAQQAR
T2 sequence (P12821 30-1256): as above
T3 sequence (Q9BYF1 19-615): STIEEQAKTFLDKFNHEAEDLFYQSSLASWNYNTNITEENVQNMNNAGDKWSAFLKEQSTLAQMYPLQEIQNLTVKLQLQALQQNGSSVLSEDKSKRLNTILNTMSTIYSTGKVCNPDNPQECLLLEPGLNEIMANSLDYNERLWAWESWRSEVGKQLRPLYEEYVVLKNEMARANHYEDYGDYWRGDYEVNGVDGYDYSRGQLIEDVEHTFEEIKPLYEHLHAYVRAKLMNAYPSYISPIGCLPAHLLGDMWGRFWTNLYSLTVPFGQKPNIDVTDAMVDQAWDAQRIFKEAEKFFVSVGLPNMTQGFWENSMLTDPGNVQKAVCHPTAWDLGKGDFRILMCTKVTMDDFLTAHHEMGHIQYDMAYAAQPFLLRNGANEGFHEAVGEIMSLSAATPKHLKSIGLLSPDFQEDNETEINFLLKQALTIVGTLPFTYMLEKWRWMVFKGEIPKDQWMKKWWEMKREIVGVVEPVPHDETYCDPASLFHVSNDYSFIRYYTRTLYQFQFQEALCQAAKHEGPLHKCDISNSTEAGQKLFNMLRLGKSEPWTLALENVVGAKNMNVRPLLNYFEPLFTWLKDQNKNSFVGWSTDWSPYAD
Sequence of extracellular catalytic domain of human angiotensin-converting enzyme 2 (hACE2), produced in mammalian cells (Q9BYF1 19-615): as above

Take GDYSHCSPLRYYPWWKCTYPDPEGGG (disulfide 6-17 (inferred), source: bought: Selleck Chemicals LLC) [DX600, disulfide-constrained cyclic peptide inhibitor of hACE2]: in experiment [1], the 50% inhibitory concentration (IC50) was > 100 µM and the inhibition constant (Ki) is > 100 µM. Take ACEPLGYNLFLCSG (also called synthetic GR1.4) [GR1.4, synthetic one-ring macrocyclic peptide]: the inhibition constant Ki in experiment [2] is > 100 µM. On to ACFFIGFNRWICSG (also called synthetic GR1.1) [GR1.1, synthetic one-ring macrocyclic peptide], for which the inhibitory constant (Ki) in experiment [2] was > 100 µM. Consider ACEPLGYNLFLCSG (also: one-ring macrocycle, ring type and places not given here) [synthetic 'one-ring' macrocyclic peptide GR1.4], for which the “stoichiometry N” value in experiment [3] was 1.4 sites. For the same molecule, the IC50 in experiment [4] is > 100 µM.

With ACFFIGFNRWICSG (also: one-ring macrocycle, ring type and places not given here) [synthetic 'one-ring' macrocyclic peptide GR1.1], in experiment [4], the IC50 is > 100 µM.

B1: synthetic 'two-ring' macrocyclic peptide GR3.1.2 (isomer of GR3.1) (peptide)
peptide: ACFLRCHRDVKCWLWCSG
modifications: also: two-ring macrocycle, isomer of GR3.1, ring type and connectivity not given here
B1: the IC50 in experiment [4] is > 100 µM. Consider ACEPLGFNRWICSG (also: one-ring macrocycle, closure not given here) [yeast-displayed 'one-ring' macrocyclic peptide GR1.3], for which the Kd in experiment [5] was 0.0538 µM. For the molecule ACFLRCHRDVKCWLWCSG (also called synthetic GR3.1.2) [GR3.1.2, synthetic isomer 2 of the two-ring macrocyclic peptide GR3.1], the inhibition constant (Ki) in experiment [2] is > 100 µM.
